The values that follow are results of earlier work, collected in PMC4344624.

The target in the series is VPg (Turnip mosaic virus) (UniProt P89509).
Chain of UniProt P89509 (P89509 1925-2116): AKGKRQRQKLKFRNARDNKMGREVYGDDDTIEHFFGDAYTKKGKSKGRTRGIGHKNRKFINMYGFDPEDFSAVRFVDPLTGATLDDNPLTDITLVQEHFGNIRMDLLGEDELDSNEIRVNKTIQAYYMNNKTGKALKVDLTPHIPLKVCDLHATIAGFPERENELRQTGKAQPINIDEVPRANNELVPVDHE

In the case of “Pokeweed antiviral protein (from UniProt P10297)”, the Kd is 29 nM.

In general, Kd refers to the constant that tells how readily two partners part at equilibrium.
